Reference: IntAct's records for PubMed 29774127

Experiments:
ehmt2_human EHMT2 = ehmt2_human EHMT2 (UniProt Q96KQ7)
setb1_human SETDB1 = setb1_human SETDB1 (UniProt Q15047)
ctnb1_human CTNNB1 = ctnb1_human CTNNB1 (UniProt P35222)

effect of a mutation on the interaction (ehmt2_human EHMT2): increasing interaction | effect of a mutation on the interaction (SETDB1, Q15047-2): increasing interaction | effect of a mutation on the interaction (setb1_human SETDB1): increasing interaction | effect of a mutation on the interaction (ctnb1_human CTNNB1): increasing interaction
Substance: Parafibromin (Homo sapiens) (from UniProt Q6P1J9) Y290F;Y293F;Y315F
